Experimental data taken from article doi:10.1101/751404, “HOPS recognizes each SNARE, assembling ternary trans-complexes for sudden fusion upon engagement with the 4th SNARE” (bioRxiv, 2019).

Molecular target: T1, Qa-SNARE Vam3, full-length, wild-type (S. cerevisiae, UniProt Q12241 1-283)
T1 construct: Vam3, vacuolar Qa-SNARE, S. cerevisiae, full-length wild type with its transmembrane domain (residues 265-283); also called GST-Qa; source: isolated as described (Mima et al., 2008; Schwartz and Merz, 2009; Zucchi and Zick, 2011), reconstituted into proteoliposomes
T1 sequence (looked up): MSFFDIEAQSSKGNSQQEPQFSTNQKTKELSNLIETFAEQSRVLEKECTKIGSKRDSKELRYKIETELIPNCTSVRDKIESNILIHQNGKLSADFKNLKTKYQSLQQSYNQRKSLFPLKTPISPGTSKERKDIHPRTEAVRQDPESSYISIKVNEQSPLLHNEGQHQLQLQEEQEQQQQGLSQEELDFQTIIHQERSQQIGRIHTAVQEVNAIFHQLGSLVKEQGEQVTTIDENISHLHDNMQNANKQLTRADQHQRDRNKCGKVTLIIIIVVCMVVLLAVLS
Test: co-IP; proteoliposomes with Ypt7 and R mixed with proteoliposomes with Ypt7, Qa and Qb, with or without 50 nM HOPS and 4 μM Qc, 33 min; solubilised in modified RIPA buffer with 5 μM GST-R; anti-Qa antibody and protein A magnetic beads, 4°C, 2 h; immunoblot with antibodies to R, Qa and Vps33
Settings: both partners purified

B1: R-SNARE (Nyv1), full-length, wild-type (natural protein, S. cerevisiae, UniProt Q12255 1-253, looked up)
chain: MKRFNVSYVEVIKNGETISSCFQPFQKNENYGTITSANEQITPVIFHNLIMDMVLPKVVPIKGNKVTKMSMNLIDGFDCFYSTDDHDPKTVYVCFTLVDMPKILPIRILSGLQEYESNATNELLSSHVGQILDSFHEELVEYRNQTLNSSGNGQSSNGNGQNTISDIGDATEDQIKDVIQIMNDNIDKFLERQERVSLLVDKTSQLNSSSNKFRRKAVNIKEIMWWQKVKNITLLTFTIILFVSAAFMFFYLW
notes: Nyv1, vacuolar R-SNARE, S. cerevisiae, full-length wild type with its membrane anchor; source: isolated as described (Mima et al., 2008; Schwartz and Merz, 2009; Zucchi and Zick, 2011), buffer exchanged into β-octylglucoside, reconstituted into proteoliposomes
binding result: binds
